Values of other authors, collected in publication PMC10793677.

Assays:
CD73 (Mus musculus) = CD73 (Mus musculus) (UniProt Q61503); assay: flow cytometry and SPR
CD73 (Homo sapiens) = CD73 (Homo sapiens) (UniProt P21589); assay: flow cytometry and SPR
Sequence of UniProt P21589 (P21589 27-549): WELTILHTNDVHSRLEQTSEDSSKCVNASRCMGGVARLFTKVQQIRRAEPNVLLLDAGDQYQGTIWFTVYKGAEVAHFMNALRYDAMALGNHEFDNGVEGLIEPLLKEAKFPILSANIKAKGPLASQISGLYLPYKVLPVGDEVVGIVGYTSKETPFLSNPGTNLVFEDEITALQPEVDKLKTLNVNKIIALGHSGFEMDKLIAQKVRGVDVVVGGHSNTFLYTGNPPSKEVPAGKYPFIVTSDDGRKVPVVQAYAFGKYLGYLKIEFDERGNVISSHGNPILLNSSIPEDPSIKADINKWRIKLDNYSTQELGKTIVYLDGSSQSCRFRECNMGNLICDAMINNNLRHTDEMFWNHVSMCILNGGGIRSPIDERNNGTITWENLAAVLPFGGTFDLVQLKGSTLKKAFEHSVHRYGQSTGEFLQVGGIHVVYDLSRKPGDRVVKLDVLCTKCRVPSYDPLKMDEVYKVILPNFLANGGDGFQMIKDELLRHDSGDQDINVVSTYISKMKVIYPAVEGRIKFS

Sequence of UniProt Q61503 (Q61503 29-551): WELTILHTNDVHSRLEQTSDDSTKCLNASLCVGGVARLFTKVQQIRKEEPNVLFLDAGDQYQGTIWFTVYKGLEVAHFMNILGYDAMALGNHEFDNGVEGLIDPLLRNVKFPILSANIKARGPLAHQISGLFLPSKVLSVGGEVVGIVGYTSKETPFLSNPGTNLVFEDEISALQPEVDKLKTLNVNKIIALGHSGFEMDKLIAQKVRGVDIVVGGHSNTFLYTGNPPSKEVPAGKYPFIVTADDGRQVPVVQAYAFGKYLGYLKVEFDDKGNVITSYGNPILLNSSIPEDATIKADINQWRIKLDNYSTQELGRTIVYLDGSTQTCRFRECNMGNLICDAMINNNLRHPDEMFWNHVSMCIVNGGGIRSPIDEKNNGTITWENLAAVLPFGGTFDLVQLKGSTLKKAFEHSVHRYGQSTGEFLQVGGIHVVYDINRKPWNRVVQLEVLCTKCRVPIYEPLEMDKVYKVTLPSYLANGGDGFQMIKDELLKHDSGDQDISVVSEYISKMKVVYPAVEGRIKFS

## Oleclumab
CD73 (Mus musculus)
  Kd: 0.113 nM
CD73 (Homo sapiens)
  Kd: 0.154 nM
